We go through one substance from publication PMC8748794.

The target in this test is Spt16/Pob3 heterodimer (yeast FACT), full length (yeast) (UniProt P32558).
Sequence of UniProt P32558 (P32558 whole entry, chain 1 of 2): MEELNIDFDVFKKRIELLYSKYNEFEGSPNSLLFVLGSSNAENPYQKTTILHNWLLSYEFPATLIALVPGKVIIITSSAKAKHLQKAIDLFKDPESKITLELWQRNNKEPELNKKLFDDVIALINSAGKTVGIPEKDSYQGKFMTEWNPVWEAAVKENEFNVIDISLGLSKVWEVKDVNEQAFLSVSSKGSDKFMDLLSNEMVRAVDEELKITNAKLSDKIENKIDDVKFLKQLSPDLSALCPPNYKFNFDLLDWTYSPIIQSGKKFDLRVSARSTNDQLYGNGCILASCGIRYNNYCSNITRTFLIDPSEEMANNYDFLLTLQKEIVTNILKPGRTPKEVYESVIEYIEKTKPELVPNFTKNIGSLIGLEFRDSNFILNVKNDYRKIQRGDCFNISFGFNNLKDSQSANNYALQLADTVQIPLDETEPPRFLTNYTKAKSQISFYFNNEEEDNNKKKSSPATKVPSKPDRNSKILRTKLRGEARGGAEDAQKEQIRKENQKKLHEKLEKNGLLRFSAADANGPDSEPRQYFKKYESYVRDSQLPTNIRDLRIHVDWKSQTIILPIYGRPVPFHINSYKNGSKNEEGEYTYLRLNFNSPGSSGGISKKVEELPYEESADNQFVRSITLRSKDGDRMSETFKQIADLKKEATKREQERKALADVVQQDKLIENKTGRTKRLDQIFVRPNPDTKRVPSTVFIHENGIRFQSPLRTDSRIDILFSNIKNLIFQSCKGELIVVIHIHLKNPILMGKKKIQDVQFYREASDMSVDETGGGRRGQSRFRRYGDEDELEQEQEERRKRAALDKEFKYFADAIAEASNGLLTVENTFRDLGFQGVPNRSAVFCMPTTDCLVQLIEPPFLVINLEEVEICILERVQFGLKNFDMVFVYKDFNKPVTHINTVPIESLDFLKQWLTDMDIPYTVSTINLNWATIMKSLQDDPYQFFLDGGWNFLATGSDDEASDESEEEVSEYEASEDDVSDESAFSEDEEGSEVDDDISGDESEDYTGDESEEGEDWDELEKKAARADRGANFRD
Sequence of UniProt P32558 (Q04636 whole entry, chain 2 of 2, further chain): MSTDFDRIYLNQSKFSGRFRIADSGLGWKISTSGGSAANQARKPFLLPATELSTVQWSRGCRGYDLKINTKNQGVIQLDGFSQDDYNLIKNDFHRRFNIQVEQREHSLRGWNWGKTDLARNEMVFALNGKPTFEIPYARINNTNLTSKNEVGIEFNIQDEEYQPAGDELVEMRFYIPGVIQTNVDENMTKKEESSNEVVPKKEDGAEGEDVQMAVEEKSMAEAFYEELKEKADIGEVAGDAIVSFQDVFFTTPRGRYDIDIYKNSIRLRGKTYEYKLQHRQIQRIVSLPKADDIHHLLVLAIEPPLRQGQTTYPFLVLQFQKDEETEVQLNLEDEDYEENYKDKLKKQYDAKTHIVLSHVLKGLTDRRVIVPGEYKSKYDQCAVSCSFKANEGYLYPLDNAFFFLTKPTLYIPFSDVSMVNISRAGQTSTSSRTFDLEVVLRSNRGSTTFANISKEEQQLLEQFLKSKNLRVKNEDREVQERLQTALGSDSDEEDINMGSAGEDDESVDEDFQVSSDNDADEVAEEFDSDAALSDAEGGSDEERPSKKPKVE

The substance “Nhp6 (non-histone protein), HMGB-domain factor (from UniProt P11632 1-93) (natural protein)” had a fraction of FACT particles in the open conformation (>90°) by negative-stain EM; 36% for FACT alone of 51%.
